The numbers were not newly measured in paper PMC3036779, which cites them from elsewhere.

For the data set, the target named is GABARAP (Homo sapiens) (UniProt O95166).
Chain of UniProt O95166 (O95166 1-116): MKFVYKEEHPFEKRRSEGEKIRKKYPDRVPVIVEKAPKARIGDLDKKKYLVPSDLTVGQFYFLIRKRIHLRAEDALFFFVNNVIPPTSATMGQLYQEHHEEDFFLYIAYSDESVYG

On to Nix (from UniProt O60238), for which the dissociation constant Kd was 100 µM.

The term Kd denotes a measure of binding affinity in units of concentration.
